Reference: paper PMC6353898, “A Rational Approach for Creating Peptides Mimicking Antibody Binding” (Scientific Reports, 2019)

Target: EGFR recombinant human protein (human) (UniProt P00533)
Assay: SPR; EGFR (20 µg/mL) or BSA (20 µg/mL) covalently attached (EDC/NHS) to a carboxymethylated dextran chip; peptides injected as analytes at 15 µL/min; 25 °C; PBS with 0.01% Tween 20, pH 7.4; global fit, 1:1 Langmuir model with mass transport; KD from koff/kon

| Kd [nM] | Binder |
| --- | --- |
| 252 | WSGENGPGFYDYEA (designed binder) [Pep11] |
| 595 | WSGENGPGTFYDYEA (designed binder) [Pep22] |
| 4800 | WSGENGPGYFDYEA (designed binder) [Pep6] |
